Data reported in paper PMC12884772, “Macrophagic Sclerostin Loop2‐ApoER2 Interaction Required by Sclerostin for Cardiovascular Protective Action” (Advanced Science, 2025).
Read-outs that look alike come from different tables or passages of the source.

Target: T1, ApoER2 (Homo sapiens, UniProt Q14114)
T1 construct: purchased R&D 3520‐AR
T1 sequence (Q14114 33-963): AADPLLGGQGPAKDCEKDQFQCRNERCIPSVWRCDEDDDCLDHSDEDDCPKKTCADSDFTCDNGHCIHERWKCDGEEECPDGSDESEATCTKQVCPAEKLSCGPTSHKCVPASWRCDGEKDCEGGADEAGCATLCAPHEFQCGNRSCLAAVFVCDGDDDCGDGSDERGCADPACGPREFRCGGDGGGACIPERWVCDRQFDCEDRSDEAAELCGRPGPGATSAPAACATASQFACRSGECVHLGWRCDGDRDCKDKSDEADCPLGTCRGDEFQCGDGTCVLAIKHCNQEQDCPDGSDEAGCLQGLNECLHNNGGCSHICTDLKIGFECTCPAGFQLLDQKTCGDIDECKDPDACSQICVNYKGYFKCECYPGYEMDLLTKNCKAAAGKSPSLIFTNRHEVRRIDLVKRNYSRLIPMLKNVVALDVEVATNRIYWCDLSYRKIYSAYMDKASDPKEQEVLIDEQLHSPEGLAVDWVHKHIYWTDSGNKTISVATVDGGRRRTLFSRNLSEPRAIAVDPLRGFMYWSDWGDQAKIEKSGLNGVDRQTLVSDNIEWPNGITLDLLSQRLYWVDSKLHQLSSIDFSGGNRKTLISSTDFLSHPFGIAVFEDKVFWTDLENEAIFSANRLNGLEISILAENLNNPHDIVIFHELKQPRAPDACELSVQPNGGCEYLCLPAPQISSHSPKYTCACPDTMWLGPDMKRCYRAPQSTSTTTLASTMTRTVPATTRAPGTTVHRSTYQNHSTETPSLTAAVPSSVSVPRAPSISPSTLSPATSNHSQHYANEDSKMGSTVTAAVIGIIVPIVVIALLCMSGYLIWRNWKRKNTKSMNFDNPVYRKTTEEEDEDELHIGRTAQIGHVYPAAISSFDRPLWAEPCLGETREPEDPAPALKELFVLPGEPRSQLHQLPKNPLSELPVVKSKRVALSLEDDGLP
Assay: Biolayer interferometry (BLI) binding of ApoER2 and sclerostin / sclerostin loop2
Procedure: The interaction of full‐length (FL)/truncated ApoER2 with full‐length (FL) /truncated sclerostin in macrophages (RAW264.7) were determined by pull‐down assay and Co‐IP assay. The binding affinity of ApoER2 to FL sclerostin and sclerostin loop2 were determined by biolayer interferometry (BLI) analysis. Moreover, the binding of sclerostin to ApoER2 on macrophages (RAW264.7) was examined by confocal microscopy.
Biolayer interferometry (BLI) analysis was performed on the Biomolecular Interaction Analyzer (ForteBio, Octet RED96e). To determine the binding affinity between ApoER2 and sclerostin, the ApoER2 protein (R&D, 3520‐AR) was biotinylated using 10 mM EZ‐Link Sulfo‐NHS‐LC‐LC‐Biotin (Thermo Scientific, 21 343) in a molar ratio of 1:20 for 2 h at 4 °C. The Slide‐A‐Lyzer Dialysis Cassettes (Thermo Scientific, 66 382) were used for excess biotin removal.^[ [61] ^] […] (SA) tray biosensors (Sartorius, 18‐5019) were used to load biotin‐ApoER2 proteins. Biosensors were pre‐wet for 10 min using 200 µL PBS containing 0.02% Tween 20 (v/v) in a 96‐well plate. […] Raw data were analyzed using Data Analysis Software (ForteBio, v8.1). All Kd values were calculated after deducting the non‐specific binding between the biosensors and the samples.^[ [62], [63] ^]

Kd (Figure S6B, Sclerostin – ApoER2, read-out: Kd, binding of sclerostin to ApoER2): 2.1 nM
Kd (Octet RED96e, biotin‐ApoER2 on streptavidin biosensors or His‐ApoER2 on HIS1K biosensors, non‐specific binding deducted, Figure 6B, read-out: Kd, binding of ApoER2 to sclerostin or sclerostin loop2): 3.8 nM
Substance: sclerostin: recombinant human/mouse full‐length sclerostin protein
